Results from US20140178388A1 (INDUSTRIAL TECHNOLOGY RESEARCH INSTITUTE, published 2014).

How the values were obtained:
[1] = target: T1, mouse CD3 on mouse spleen T lymphocytes (mouse, UniProt P22646 22-189); assay: flow cytometry (MFI) on purified mouse spleen T lymphocytes, serial dilution
T1 construct: whole, on cells; also called mouse T lymphocytes

[2] = target: T2, human CD3 (TCR-CD3 complex) on human T cells (human, UniProt P07766 23-207); assay: flow cytometry (MFI) on purified human T lymphocytes, serial dilution
T2 construct: whole, on cells; The other subunits of the complex on the cells are not described; also called CD3ε chain; CD3(+) Jurkat T cells

T1 sequence (P22646 22-189): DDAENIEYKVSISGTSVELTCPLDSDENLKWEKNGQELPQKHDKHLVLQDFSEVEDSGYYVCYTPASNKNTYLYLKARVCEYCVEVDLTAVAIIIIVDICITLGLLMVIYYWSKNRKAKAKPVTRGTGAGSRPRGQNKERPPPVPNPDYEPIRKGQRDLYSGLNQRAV

“hamster anti-mouse CD3 antibody (145-2C11)” gave a Kd [1] of 15 nM.

B1: hOKT3FabCSA trimer (Fab, V domains shown)
VH: QVQLVQSGGGVVQPGRSLRLSCKASGYTFTRYTMHWVRQAPGKGLEWIGYINPSRGYTNYNQKVKDRFTISRDNSKNTAFLQMDSLRPEDTGVYFCARYYDDHYCLDYWGQGTPVTVSS
VL: DIQMTQSPSSLSASVGDRVTITCSASSSVSYMNWYQQTPGKAPKRWIYDTSKLASGVPSRFSGSGSGTDYTFTISSLQPEDIATYYCQQWSSNPFTFGQGTKLQITR
notes: Trimeric Fab-collagen-like peptide fusion from the Superdex 200 peak 2 fraction; Expressed in CHO-S cells; also called trimeric hOKT3FabCSA; trivalent hOKT3FabCSA
B1 was tested, and the Kd [2] was 0.02 nM and the “fold greater binding strength than hOKT3IgG-AA” value [2] was 7.5 fold.

B2: low-Fc binding anti-human CD3 antibody-hOKT3IgG-AA (antibody, V domains shown)
VH: B1 VH
VL: DIQMTQSPSSLSASVGDRVTITCSASSSVSYMNWYQQTPGKAPKRWIYDTSKLASGVPSRFSGSGSGTDYTFTISSLQPEDIATYYCQQWSSNPFTFGQGTKLQIT
notes: also called hOKT3IgG-AA (dimer)
For B2, the Kd [2] was 0.15 nM.

B3: h145FabCSA trimer (Fab, V domains shown)
VH: EVQLQESGGGLVQPGKSLKLSCEASGFTFSGYGMHWVRQAPGRGLESVAYITSSSINIKYADAVKGRFTVSRDNAKNLLFLQMNILKSEDTAMYYCARFDWDKNYWGQGTMVTVSS
VL: DIQMTQSPSSLPASLGDRVTINCQASQDISNYLNWYQQKPGKAPKLLIYYTNKLADGVPSRFSGSGSGRDSSFTISSLESEDIGSYYCQQYYNYPWTFGPGTKVEIKR
notes: Trimeric Fab-collagen-like peptide fusion from the Superdex 200 peak 2 fraction; Expressed in NS0 cells; also called trimeric h145FabCSA
For B3, the Kd [1] was 4 nM and the “fold greater binding strength than 145-2C11” value [1] was 3.75 fold.
